The nanobody polyreactivity screen of Harvey et al. (2022)

Assay: yeast display, Sf9 membrane polyspecificity reagent, FACS + sequencing; frameworks hold sequencing errors
Outline: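 A nanobody's polyreactivity label depends on the gate it was sorted from. Yeast display cells were stained with 10% biotinylated, detergent-solubilized Sf9 membrane reagent for 1 hour at 4 °C, enriched on streptavidin microbeads and sorted by FACS. The low and high (top ~1%) gates were set on anti-HA fluorescence for expression and streptavidin fluorescence for reagent binding.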

Sequence | polyreactivity (PSR sort gate)
QVQLVESGGGLVQAGGSLRLSCAASGIIFGFNTMGWYRQAPGKERELVAVITWSGGSTYYADSVKGRFTISRVFAKNTVYLQMNCLNPDDTAVYYCATVRAVEYNYWGQGTQVTVSS | low polyreactivity
QVQLVESGGGLVQAGGSLRLSCAACGSTFWYYAMGWYRQAPGKEREFVAAISKSGDSTNYADSVKGRFTISRDNAKNTVYLQMNSLKPEDTAVYYCAATRSSGRFRYYYWGQGTQVTVSS | high polyreactivity
QVQLQESGGGLMQAGGNLRLSCAASGYISTHYDMDWYRQAPGKERELVARIDDGAITNYADSVKGRFTISRDNAKNTVYLQMNSLKPEDTAVYYCAVSSGDDYYHDYWGQGTQVTVSS | low polyreactivity
QVQLVESGGGLVQAGGSLRLSSAASGRIFTYYTMGWSRQAPGKERELVAAISARGGNTYYADSVKGRFTISRDNAKNTVYLQMNSLKPEDTAVYYCAAGWVTSRTYYTHQIRNPLDYWGQGTQVTVSS | high polyreactivity
QVQLVESVGGLVQAGGSLRLSCAASGFTFSWSTKGWYRQAHAKERELVATISWSGSRTYYADSVKGRFTISRDNAKNTVYLEINSLKPEDTAVYYCNVAPHRQVFYTGQYDYWGQGTQVTVSS | high polyreactivity
QVHLVDSGGGLVQAGGSLRLSCAASGRTFGRNAMGWYRQAPGKERELVAAISLRGGRTYYADSVKGRFTISRDNAKNTVYLQMNSLKPEDTAVYYCAAYGYRDYYFWGQGTQVTVSS | high polyreactivity
KVQLVESGGGLVQAGGSLRLSCAASGFTFRSYAMGWYRQAPGKERDFVAAITINGGSTYYADSVKGRFTISRDNAKNTVYLQMNSLKPEDTAVYYCAAGTLYRIRGYPLWQYDYWGQGTQVTVSS | high polyreactivity
QVQLVESGGGLVQAGGSLRLSCAASGRTFGRYAMGWYRQATGKERELVAAISTGGRTYYADSVKGRFTISRDNAKNTVYLQMNSLKPEDTEVYYCNRVVVVGILEMGYWGQGTQVTVSS | low polyreactivity
QVQLVESGGGLVQAGGSLRLSCAASGFIFYLYTMGWYRQAPGKERELVAAIDYSGASTNYADSVKGRFTISRDNAKNTVYVQRNSQKPEDTAVYYCAVNPEVLYHSWTLDYWGQGTQVTVSS | low polyreactivity
QVQLVESGGGLVQAGGSLRLSCAASGITFRYYTMGWYRQAPGKERELVAAISSSGGSTYYADSVKGRFTISRDNAKNTVYLQMNSLKPEDTAVYYCAAESKYATSSPRRDYWGQGTQVTVSS | high polyreactivity
QVQLQESGGGLEQEGGSLRLSCAASGNISPPADMGWYRQAAGKERELVASIGTGGTTNYADSVKGRFNISRDNAKNTVYLQMNSLKPDDTSVYYCAAVRYEYNPYDYLGQGTQVTVSS | low polyreactivity
QVQLVESGGGLVQAGGSLRLSCAASGNTLGYYAMGWYRQAAGKARELVATICDDGTTYYADSVKGRFTISRDNAMNTVYLQMNSLSPEETAVYYCASVGSAQYSMDYWGDGTQVTVSS | low polyreactivity
QVQLVESGGGLVQAGGSLRLSCAPTGSIFSVYAMGWYRHAPGKESELVATISSSGSTNYADSVKGRFTISRDNAKNTVYLQMNSLKPEDTAVYYCNVVGEYTQSDYSGYDYWGQGTQVTLSS | low polyreactivity
QVQLVESGGGLVQAGGSLRLSCAASGRIFKYYAMGWYRQAPGKERELVAAINRDGGRTYYADSVKGRFTISRDNAKNTVYLQMNRLKPDDTAVYYCAASYGYWGQGSQVTVSS | low polyreactivity
QVQLVESGGGLVQAGGSLRLSCAASASNSNGMTWYGIDRRLGRKELVAGIRSAGSTNYADSVKGRFTISRDNAKNTFYLQMNSLKPEDTAGYYCAKDYRWVWRKYGYWGQGTQVTVSS | low polyreactivity
QVQLVESGGGLVQAGGSLRLSCAASGLTFYGYGMGWYRQAPGKERELVASITSGGNTYYADSVKGRFTISRDNAKNTVYLQMNSLKPEDTAVYYCNADDGGPGVVLPTKEYDYWGQGTQVTVSS | low polyreactivity
QVQLVESGGGLVQAGGSLRLSCAASGRTLNDYAMEWYRQAPGKERELVAGITSGDSTYYADSVKGRFTISRDNAKNTVYLQMNSLIPEDTAVYYCAADSDTFYYTGYDYDYWGQGTQVTVSS | low polyreactivity
QVQLVESGGGLVQAGGSLRLSCAASGRIFRSYVMGWYRQAPGKERELVAVISKNGGTTYYADSVKGRFTISRDNAKNTVYLQMNSLKPEDTAVYYCAADFRYRSQPGWGARRNGYYWGQGTQVTVSS | high polyreactivity
QVQLVESGGGLGQAGGSLRLSCAASGRTFTGYAMGWYRQAPGKERELVATISRSGGTTSYADSVKGRFTISRDNAKNTVYVQMNSLKPVDTAVYYCAADRRSRPYYYWGQGTQVTVSS | high polyreactivity
QVQHVESGGGLVQAGGSLRLSCAASGRIFSSNAMGWYRQAPGKERELVASITSGGNTNYADSVKGRFTISRDNAKNTVYLQMNSLKPEDTAVYYCAALSKTRCGYWGQGTQVTVSS | high polyreactivity
QVQLVESGGGLVQAGGSLRLSCAASGRTFSYNAMGWYRQAPGKERELVAAISYDGGRTYYADSVKGRFTISRDNAKNTVYLQMNSLKPEDTAVYYCAAYPYRGPHPWTIGDYWGQGTQVTVSS | low polyreactivity
QVQLVESGGGLVQAGGSLRLSCAASGRIIGLYTMGWYRQAPGKERELVAAINIRGTRTYYADSVKGRFTISRDNAKNTVYLQMNSLKPEDTAVYYCAAASYRSGRYTFDYWGQGTQVTVSS | high polyreactivity

Sequence | polyreactivity (PSR sort gate)
QVQLVESGGGLVQAGGSLRLSCAASGRIFYTNAMGWYRQAPGKERELVATISGSGGNTYYADSVKGRFTISRDNAKNTVYLQMNSLKPEDTAVYYCAKAYYTPYGVYVLHYYWGQGTQVTVSS | high polyreactivity
QVQLVESGGGLVQAGGSLRLSCAASGLTFNKNAMGWYRQAPGKEREFVAAISRRGGSTRYADSVKGRFTISRDNAKNTVYLQMHSLKPEDTAVYYCAKTAVDYYYSYDYWGQGTQVTVSS | high polyreactivity
QVQLVESGGGLVQAGGSLRLSCAASGITFYPNGMGWYRQAPGKEREFVAAISSSGGSTYYADSVKGRFTISRDNAKNSVYLQMNSLKPEDTAVYYCAAQYYAMSYYGYGYWGQGTQVTVSS | low polyreactivity
QVQLLESGGGLVQAGGSLRLSCAASGRIFVTYAMGWYRQAPGKERELVAAITSRGGRTYYADSVKGRFTISRDNAKNTVYLQMNSLKPEATAVYYCAAYPGPGARYYYWGQGTQVTVSS | high polyreactivity
QVQLVESGGGLVQEGGSLRLSCAASGITFSYYAMGWYREAPGKEREWVATIRSSGGSTYYADSVKGRFTISRENAKNTVYLQMNSQKPEDTAVYYCAVRLWFDYNYWGQGTQVTVSS | low polyreactivity
QVQLVESGGGLVQAGGSLRLSCAASGSIFTQYAMGWYRQAPGKERELVAAISWRGGRTYYADSVKGRFTISRDNAKNTVYLQMNSLKPEDTAVYYCNRVYGAHHYYYGIGTYDYWGQGTQVTVSS | high polyreactivity
QVQLVESGGGLVQAGGSLRLSCAASGFTFSWNTMGWYRQAPGKERELVATISGSGGRTYYADSVKGRFTISRDKAKNTVYLQLNSLKPEDTAVYYCAKRRASRYYWGQGTQVTVSS | high polyreactivity
QVQLVESGGGLVQAGGSLRLSCAASGRTLARNAMGWYRQAPGKERELVAGITSGGSTDYADSVKGRFTISRDNAKNTVYLQMNSLKPEDTAVYYCNRDAGPGGDYWGQGTQVTVSS | low polyreactivity
QVQLVESGGGLVQAGGSLRLSCAASGRIFSRNAMGWYRQAPGKERELVAAITRIGGSTYYADSVKGRFTISRDTAKNTVYLQMNSRKPEDTAVYYSAARGSGKYGWGQGTQVTVSS | high polyreactivity
QVQLQESGGGQVQAGGSLRWSCAASGYISTHYFMGWYRQAPGKDREFVAGISNGSITNYADSVKGRFTISRDNARNTVYLQMNSLKPEDTAVYYVAAYQWTYVRFGYWGQGTQVTVSG | high polyreactivity
QVQLVESGGGLVQAGGSLRLSCAASGSTFTWNGMGWYRQAPGKERELVATISYGGGRTYYADSVKGRFTISRDNAKNTVYLQMNSLKPEDTAVYYCAADFTRYTQVHALRLSEYWGQGTQVTVSS | low polyreactivity
QVQLVESGGGLVQAGGSLRLSCAASGFTFKFNAMGWYRQAPGKEREFVAAISYSGGSTYYADSVKGRFTISRDNAKNTVYLQMNSVKPEDTAVYYCAARAYWYGASYYYWGQGTQVTVSS | high polyreactivity
QVQLVDSGGGLVQAGGSLRLSCAASGSIFSVYAMGWYRQAPGKERELVAAISSRGGSTYYADSVKGRFTISRDNAKNTVYLQMNSLKPEDTAVYYCAASRQSQRGYWGQGTQVTVSS | high polyreactivity
QVQLVESGGGLVQAGGILRLICAASGSIFYYNAMGWSRQAPGKERELVAAITKSGTRTNYADSVKGRFTISRDNAKNTVYLQMNSLKPEDTAVYDCAAEDQYYRYVCAYEYWGQGTQVTVSS | high polyreactivity
QVQLVESGGGLVQAGGSLRLSCAASGSTFRRNAMGWYRQAPGKERELVAAISSGGGSTYYADSVKGRFTISRDNAKNTVYLQMNSLKPEVTAVYYCAAGYFGHYVEYYYWGQGTQVTVSS | high polyreactivity
QVQLVESGGGLVQAGGSLRLSCAASGSTFGNNAKGWYRQAPGKERELVAAITFRGTSTYADSVKGRFTISRDYAKNTVYLQMNSLKPEDTAVYYCAAVVYFVSYRFYYWGQGTQVTVSS | high polyreactivity
QVQLVESGGGLVQAGGSLRLSCAASGSIFAKYGMGWYRQAPGKEREFVAAISKSGGITYYADSVKGRFTISRDNAKNTVYLQMNSLKPEDTAVYYCADSYVSYRKRDDYWGQGTQVTVSS | high polyreactivity
QVQLVESGGGLVQAGGSLRLSCAASGRIYWNDMGWYIQAPGKERELVAAISWGGDRTYYADSVKGRFTISRDNAKNTVYLQMNSLKPEDTSVYYCNAPGYLTYDHSYDYWGQGTQVTVSS | low polyreactivity
QVQLLESGGGLVQAGGSLRLSCAASGRIFWNNAMGWYRQAPGKERELVAVISTRGGRTYYADSVKGRFTISRDNANNTVNLQMNSLKPEDTAVYYCAAEFLNKAVGGVTSIYDSWGQGTQVTVSS | low polyreactivity
QVQLVESGGGLVQAGGSLRLSCAASGYTFALYAMGWYRQAPGKERELVAAITWNGGSTYYADSVKGRFTISRDNAKNTVYLQMNSLKPEDTSVYYCNVESSQSSSGFDYWGQGTQVTVSL | low polyreactivity
QVQLVESGGGLVQAGRSLRLSCAASGSTLQDNAMGWYRQAPGKERELVAAITLNGGSTYYADSVKRRFTISRDHAKNTVYLPMNSLKPEDTAVYYCAAEYLYVGYWFDYWGQGTQVTVSS | high polyreactivity
